The text below walks through data of patent publication US20140363432A1.

The target of assay [1] is recombinant hVEGF (165 amino acids) (human) (UniProt P15692). Briefly: 125I-hVEGF binding to bovine ACE cells with antibody (FIG. 3b). The settings on record: scale: molar ratio of antibody to hVEGF.
For assay [2] the target is unchanged. Kind of assay: competitive binding of 125I-hVEGF against unlabeled hVEGF, immune complexes precipitated, Scatchard analysis.
For assay [3] the target is unchanged. Kind of assay: cell-based or functional assay.

Sequence of UniProt P15692 (P15692 other isoform, or with tags, fused parts or gaps): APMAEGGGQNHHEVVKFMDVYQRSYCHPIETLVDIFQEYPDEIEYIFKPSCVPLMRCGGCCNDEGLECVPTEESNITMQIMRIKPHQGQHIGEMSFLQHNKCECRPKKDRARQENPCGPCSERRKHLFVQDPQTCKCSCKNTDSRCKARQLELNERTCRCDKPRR

Take “anti-hVEGF monoclonal antibody produced by the A4.6.1 hybridoma”: the molar ratio of hVEGF to antibody at complete inhibition of hVEGF binding to bovine ACE cells in assay [1] was determined as 250. Also, in assay [2], the Ka came out at 1.2e+09 M⁻¹. In addition, the inhibition of hVEGF mitogenic activity on bovine ACE cells in assay [3] was above 90 % inhibition.
